Patent publication US20180037649A1 (OSAKA UNIVERSITY, published 2018)

T1: deletion mutant CKAP4-HA ΔLZ (human, UniProt Q07065 1-602)
T1 construct: not shown: HA tag
T1 sequence: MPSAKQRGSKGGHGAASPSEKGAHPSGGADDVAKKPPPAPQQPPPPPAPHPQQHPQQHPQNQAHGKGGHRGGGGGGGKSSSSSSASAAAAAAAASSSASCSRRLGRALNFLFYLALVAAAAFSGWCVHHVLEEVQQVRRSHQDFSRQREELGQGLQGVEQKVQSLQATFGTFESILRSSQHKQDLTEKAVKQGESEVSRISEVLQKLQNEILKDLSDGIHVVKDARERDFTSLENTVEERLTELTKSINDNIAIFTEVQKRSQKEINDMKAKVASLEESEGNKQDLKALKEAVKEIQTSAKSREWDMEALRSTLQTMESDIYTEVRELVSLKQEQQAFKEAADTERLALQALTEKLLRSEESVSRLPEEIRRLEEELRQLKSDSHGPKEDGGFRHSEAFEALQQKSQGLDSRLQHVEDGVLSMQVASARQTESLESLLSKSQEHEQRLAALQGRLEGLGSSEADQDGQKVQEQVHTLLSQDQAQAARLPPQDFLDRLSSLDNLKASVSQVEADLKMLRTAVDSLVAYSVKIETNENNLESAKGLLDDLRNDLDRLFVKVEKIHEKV

B1: Dkk1-FLAG (wild-type human Dkk1 tagged with FLAG at the C-terminal) (ligand, UniProt O94907 32-266, looked up)
chain: TLNSVLNSNAIKNLPPPLGGAAGHPGSAVSAAPGILYPGGNKYQTIDNYQPYPCAEDEECGTDEYCASPTRGGDAGVQICLACRKRRKRCMRHAMCCPGNYCKNGICVSSDQNHFRGEIEETITESFGNDHSTLDGYSRRTTLSSKMYHTKGQEGSVCLRSSDCASGLCCARHFWSKICKPVLKEGQVCTKHRRKGSHGLEIFQRCYCGEGLSCRIQKDHHQASNSSRLHTCQRH
notes: Expressed in MDCK or X293T cells; pulled down from cell lysates with an anti-FLAG antibody; also called WT-FLAG; wild-type Dkk1-FLAG (WT); not shown: FLAG tag at the C-terminal
B2: CKAP4 of S2-CP8 cells (endogenous) (receptor)
chain: MPSAKQRGSKGGHGAASPSEKGAHPSGGADDVAKKPPPAPQQPPPPPAPHPQQHPQQHPQNQAHGKGGHRGGGGGGGKSSSSSSASAAAAAAAASSSASCSRRLGRALNFLFYLALVAAAAFSGWCVHHVLEEVQQVRRSHQDFSRQREELGQGLQGVEQKVQSLQATFGTFESILRSSQHKQDLTEKAVKQGESEVSRISEVLQKLQNEILKDLSDGIHVVKDARERDFTSLENTVEERLTELTKSINDNIAIFTEVQKRSQKEINDMKAKVASLEESEGNKQDLKALKEAVKEIQTSAKSREWDMEALRSTLQTMESDIYTEVRELVSLKQEQQAFKEAADTERLALQALTEKLLRSEESVSRLPEEIRRLEEELRQLKSDSHGPKEDGGFRHSEAFEALQQKSQGLDSRLQHVEDGVLSMQVASARQTESLESLLSKSQEHEQRLAALQGRLEGLGSSEADQDGLASTVRSLGETQLVLYGDVEELKRSVGELPSTVESLQKVQEQVHTLLSQDQAQAARLPPQDFLDRLSSLDNLKASVSQVEADLKMLRTAVDSLVAYSVKIETNENNLESAKGLLDDLRNDLDRLFVKVEKIHEKV
notes: Used in lysates (IP, immunoblot) and on unfixed cells (staining)

Legend:
[1] = target: T1, deletion mutant CKAP4-HA ΔLZ; assay: co-IP with anti-FLAG antibody from X293T/Dkk1-FLAG cell lysate, immunoblot with anti-HA antibody
Description: A lysate (Input) of X293T/Dkk1-FLAG cells in which wild-type CKAP4-HA (WT) or a deletion mutant CKAP4-HA (ΔLZ) was transiently expressed was immunoprecipitated with an anti-FLAG antibody, and then the cell lysate (Input) and the immunoprecipitates (IP) were subjected to the detection of HA and Dkk1 using an anti-HA antibody and an anti-Dkk1 antibody, respectively. The results are shown in the lower right panel in FIG. 2 (e). […] Namely, it was confirmed that a CRD-1 domain located on the N-terminal side of Dkk1 and a leucine zipper domain of CKAP4 were necessary for the binding between Dkk1 and CKAP4.

[2] = target: p85α of S2-CP8 cells (endogenous) (human, UniProt P27986 2-724); assay: co-IP with anti-CKAP4 antibody from S2-CP8 cell lysate (control shRNA or Dkk1 shRNA), immunoblot
Chain of p85α of S2-CP8 cells (endogenous) (P27986 2-724): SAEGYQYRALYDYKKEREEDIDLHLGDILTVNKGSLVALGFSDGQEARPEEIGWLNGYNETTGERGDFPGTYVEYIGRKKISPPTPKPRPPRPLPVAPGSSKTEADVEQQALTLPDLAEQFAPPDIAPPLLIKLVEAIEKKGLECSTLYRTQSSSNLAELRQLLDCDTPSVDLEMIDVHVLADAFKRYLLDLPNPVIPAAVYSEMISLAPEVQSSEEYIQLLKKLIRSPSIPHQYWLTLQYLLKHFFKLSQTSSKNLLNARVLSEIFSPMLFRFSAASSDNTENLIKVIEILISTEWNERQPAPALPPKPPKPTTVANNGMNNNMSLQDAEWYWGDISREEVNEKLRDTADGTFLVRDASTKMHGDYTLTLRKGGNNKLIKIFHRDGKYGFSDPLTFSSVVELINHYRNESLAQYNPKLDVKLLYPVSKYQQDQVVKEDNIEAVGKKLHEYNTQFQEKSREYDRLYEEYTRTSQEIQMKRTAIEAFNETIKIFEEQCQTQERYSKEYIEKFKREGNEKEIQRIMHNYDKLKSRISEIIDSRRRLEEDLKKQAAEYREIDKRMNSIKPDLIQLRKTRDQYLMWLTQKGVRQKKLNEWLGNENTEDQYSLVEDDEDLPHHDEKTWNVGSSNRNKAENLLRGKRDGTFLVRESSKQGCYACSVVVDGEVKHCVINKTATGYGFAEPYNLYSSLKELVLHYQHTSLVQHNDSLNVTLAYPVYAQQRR
Protocol: A lysate (Input) of S2-CP8 cells in which control shRNA or Dkk1 shRNA (Dkk1) was stably expressed was prepared. The lysate was immunoprecipitated with an anti-CKAP4 antibody. Subsequently, the cell lysate (Input) and the immunoprecipitates (IP) were subjected to the detection of p85α, p110β, CKAP4 and Dkk1 using an anti-p85α antibody, an anti-p110β antibody, an anti-CKAP4 antibody and an anti-Dkk1 antibody, respectively.

| binding result [1] | binding result [2] | Binder |
| --- | --- | --- |
| no binding |  | B1 |
|  | binds | B2 |
